Results: patent publication US11225653B2, “Methods and compounds for reducing threonyl-tRNA synthetase activity” (University of Vermont and State Agricultural College, priority 2012, dated 2022)
Entries after “also recorded” stand apart in the source; their conditions may differ.

Legend:
[1] = target: T1, human TARS (Homo sapiens, UniProt P26639); experiment: Ap4A formation assay; assay type: biochemical; conditions: FIGS. 17C and 17D, 10 μM compound
T1 construct: His6 (N); made in house; host or cells: E. coli Rosetta 2(DE3)pLysS, plasmid pET28a hctThrRS
T1 sequence (P26639 1-723): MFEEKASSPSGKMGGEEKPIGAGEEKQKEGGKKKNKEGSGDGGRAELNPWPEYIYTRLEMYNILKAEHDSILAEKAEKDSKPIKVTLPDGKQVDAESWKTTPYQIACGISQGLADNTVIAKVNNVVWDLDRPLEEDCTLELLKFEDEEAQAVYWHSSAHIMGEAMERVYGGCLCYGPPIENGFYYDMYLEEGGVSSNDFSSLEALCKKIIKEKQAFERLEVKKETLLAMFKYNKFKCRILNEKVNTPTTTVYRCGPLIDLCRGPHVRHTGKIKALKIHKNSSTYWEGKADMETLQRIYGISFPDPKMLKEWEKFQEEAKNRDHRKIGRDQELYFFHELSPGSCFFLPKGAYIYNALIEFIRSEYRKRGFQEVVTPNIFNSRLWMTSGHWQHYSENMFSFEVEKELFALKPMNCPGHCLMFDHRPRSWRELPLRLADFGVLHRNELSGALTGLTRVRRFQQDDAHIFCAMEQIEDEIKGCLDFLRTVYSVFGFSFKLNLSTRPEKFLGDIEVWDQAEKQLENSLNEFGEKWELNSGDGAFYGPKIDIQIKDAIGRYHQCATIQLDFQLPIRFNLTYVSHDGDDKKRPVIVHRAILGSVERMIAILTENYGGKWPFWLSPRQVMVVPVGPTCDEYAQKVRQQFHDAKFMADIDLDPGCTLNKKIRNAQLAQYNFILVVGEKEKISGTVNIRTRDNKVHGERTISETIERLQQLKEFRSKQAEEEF
Protocol: (§1) TARS purification and active site determination were performed as previously described (Williams, Mirando et al., 2013). TARS non-canonical catalytic activities were characterized using modifications from published methods (Guo, Chong et al. 2009). For Ap4A reactions 5 μM of wildtype TARS or R442A TARS were incubated for 10 minutes on ice with 2 mM threonine, and 10 μM BC194 or borrelidin as indicated in FIG. 17C. Reactions were initiated using 2 mM ATP with trace amounts of [α-^32P]-ATP as label. At specific time points aliquots were quenched in 3 volumes of 0.1% SDS, 400 mM sodium acetate and resolved on polyethyleneimine-cellulose plates by thin-layer chromatography (TLC) in 3 M NH4 (SO4)2 and 2% EDTA. Radioactive counts were identified by phosphorimaging and products quantified as fractions of total ATP added. The quantitation of product was normalized to take into account the fact that each Ap4A molecule has two equivalents of radioactive phosphorus.

[2] = target: T1, human TARS; experiment: GTPase assay (GTP hydrolysis); assay type: biochemical; conditions: 10 μM BC194 or 10 μM borrelidin
[3] = test system: Human umbilical vein endothelial cells (HUVECs); experiment: In vitro endothelial tube formation assay; assay type: cell-based
Protocol: In vitro Tube Formation Assay-Tube formation assays were performed as described (Arnaoutova and Kleinman 2010; Cassavaugh, Hale et al. 2011). Human Umbilical Vein Endothelial Cells (HUVECs) were seeded in 48-well plates (1.5×10^4 cells/well) coated with 100 μl of Matrigel™ Basement Membrane Matrix Growth Factor Reduced (BD Biosciences, San Jose, Calif.) and incubated in Clonetics® EGM®-2 complete media (Lonza, Annandale, N.J.) or EGM®-2 with reduced serum (0.2% fetal bovine serum). Cells were incubated at 37° C. for 6 h then fixed in 10% formalin. Fixed samples were imaged by phase-contrast microscopy or stained with Oregon Green 488 Phalloidin (Molecular Probes, Eugene, Oreg.) then imaged with fluorescence microscopy (2× objective). Number of tubes and tube lengths (in pixels) were quantified using the Simple Neurite Tracer (Longair, Baker et al. 2011) plug-in on ImageJ software (NIH). Statistical analysis of one-way ANOVA was performed with GraphPad Software. Multiple comparisons were performed using the Tukey Test.

[4] = test system: HUVECs; experiment: Endothelial cell proliferation assay (alamarBlue); assay type: cell-based, human
Protocol: Endothelial Cell Proliferation Assay—The […] alamarBlue® (Invitrogen) reagent was used to assess cell proliferation (Ahmed, Gogal et al. 1994). HUVECs were seeded in a 96-well dish (1×10^3 cells/well) and grown for 48 h in EGM®-2 media. Cells were incubated in 0.2% FBS EGM®-2 media or EGM®-2 complete media as indicated; VEGF (50 ng/ml) and media alone served as controls. After 48 h, 72 h, or 96 h in culture, 10 μl/well premixed alamarBlue® (Invitrogen) was added and after 3 h at 37° C. the amount of reduced alamarBlue® was quantified by fluorescence (excitation at 530 nm, emission at 590 nm) on a microplate reader (Synergy™ HT, BioTek, Winooski, Vt.).

[5] = test system: chorioallantoic membrane (CAM); experiment: Chick chorioallantoic membrane (CAM) assay; assay type: in vivo, chicken
Protocol: Chick Chorioallantoic Membrane Assay-Fertilized chicken eggs (Sunrise Farms, Catskill, N.Y.) day 1-2 post-laying were incubated in a humidified incubator at 37° C. for 72 h. Cleaned eggs were cracked and plated in a sterile 10 cm^2 tissue culture-treated dish and incubated at 37° C. for another 7 days. On developmental day 10, 1 mm^3 sterile gelatin sponge pieces (Surgifoam®; Johnson & Johnson Wound Management, Somerville, N.J.) were placed within the outer one-third of the membrane between large vessels. 40 μg/ml human bFGF and 2 μg/mL human VEGF were used as pro-angiogenic control compounds; 100 μg/mL retinoic acid (Sigma-Aldrich, St. Louis, Mo.) diluted in phosphate-buffered saline (PBS) was used as an angiostatic control. All compounds were applied in 10 μl to the CAM every 24 h for 72 h. Images were taken using a Leica MZ6 stereomicroscope every 24 h. Compounds were scored according to a modified version of Intensity Scoring as previously described (Ribatti, Nico et al. 2006). Briefly, each experimental condition was given a blinded score from 0-5 based on the change in the extent of vessel convergence and formation in proximity to the sponge from day 0 to day 3. Total score is averaged individual experimental condition scores from at least 15 replicates.
Fertilized chicken embryos were cultured ex-ova and, starting at developmental day 10, agents were applied daily to gelfoam sponges on the CAM. Images were recorded daily over 72 h and scored blindly according to a modified version Intensity Scoring as previously described (Ribatti, Nico et al. 2006). Additional details regarding methods are provided in the Methods and Materials section of Example 1.

[6] = test system: HUVEC; experiment: Transwell migration assay; assay type: cell-based, human; conditions: 4 h
Protocol: Transwell Migration Assay—Migration was assessed using transwell inserts (Svensson, Kucharzewska et al. 2011). HUVEC cultures were serum-depleted overnight in Clonetics® EGM®-2 modified with 0.2% fetal bovine serum then 5×10^4 cells were plated in 90% EBM®-2, 10% EGM®-2 in the upper chamber of 0.2% gelatin-coated 24-well 8 μm Transwell® inserts (Corning, Tewksbury, Mass.) with 90% EBM®-2, 10% EGM®-2 media plus 50 ng/ml VEGF, 1-100 nM TARS protein, or 10 nM BC194 in the lower chamber. Cultures were incubated for 4 h, fixed in 10% formalin, and stained with 10 μg/ml DAPI solution (Roche) following removal of cells from the top layer of the chamber with a cotton swab. Migrated cells were imaged using a 4× objective on the Olympus 1×70 Inverted microscope (Olympus). DAPI-stained nuclei were counted using ImageJ software.

[7] = test system: human TARS; experiment: Steady state aminoacylation assay; assay type: biochemical; conditions: purified protein
Protocol: Steady State Aminoacylation Assay-The aminoacylation activities of the TARS constructs were determined using modifications to established procedures ([…] et al 2008). Briefly, reaction mixtures consisted of 20 mM Tris-HCl pH 8.0, 100 mM KCl, 10 mM MgCl2, 1 mM dithiothreitol, 2 mM ATP, 2.5 U pyrophosphatase (Roche), 80 μM threonine, 20 μM [14C]-threonine, and 5 μM of E. coli or human […]. Reactions were initiated with the addition of 0.25-0.75 μM TARS and run at 37° C. Aliquots were taken at varying time points and spotted onto Whatmann 3MM paper filters pre-soaked in 5% trichloroacetic acid (TCA). Upon completion, the filters were washed 3 times in excess TCA, once in 95% ethanol, and dried under a heating lamp. The formation of […] was detected by scintillation counter and the activity determined by linear regression of […] formed per active site per unit time.

[8] = test system: human TARS; experiment: Ap4A formation assay; assay type: biochemical; conditions: 5 μM enzyme, 2 mM threonine, 2 mM ATP
Protocol: as §1

[9] = test system: human TARS; experiment: Ap4G formation assay; assay type: biochemical; conditions: 2 mM ATP, 2 mM threonine, 2 mM GTP
[10] = test system: human TARS; experiment: GTPase assay (GTP hydrolysis); assay type: biochemical; conditions: 2 mM GTP

For C[C@@H]1C[C@H](C)C[C@H](C)[C@@H](O)CC(=O)O[C@H]([C@@H]2CCC[C@H]2C(=O)O)C/C=C/C=C(/C#N)[C@H](O)[C@@H](C)C1 [borrelidin, reference compound], the “inhibition of Ap4A and Ap4G synthesis (in words)” value [1] was “at least partially inhibited” and the “change of TARS GTPase activity upon treatment” value [2] was “no observable change”.

With C[C@@H]1C[C@H](C)C[C@H](C)[C@@H](O)CC(=O)O[C@H]([C@@H]2CC[C@H]2C(=O)O)C/C=C/C=C(/C#N)[C@H](O)[C@@H](C)C1 [BC194, reference compound] the “tube (branch) length” value ([3]; HUVECs on Matrigel, range of BC194 concentrations) was “does not affect endothelial tube branch length”, the “effect on VEGF proliferative response” value ([4]; 10 nM BC194, 50 ng/ml VEGF, low serum media) was “did not significantly reduce the VEGF proliferative response” and the “inhibition of vessel formation on the CAM” value ([5]; daily application to gel sponge, basal, bFGF (40 μg/ml) or VEGF (2 μg/ml) stimulated) was “inhibited vessel formation at both the basal level and after stimulation with either bFGF or VEGF”. For the same molecule, the “effect on VEGF- and TARS-mediated migration” value ([6]; 10 nM BC194 with 50 ng/ml VEGF or 100 nM TARS) was “reduced both the migration effects of VEGF and TARS”, the “inhibition of Ap4A and Ap4G synthesis (in words)” value [1] was “at least partially inhibited” and the “change of TARS GTPase activity upon treatment” value [2] was “no observable change”.

B1: TARS: N-terminal His6-tagged human threonyl-tRNA synthetase expressed and purified from E. coli (protein, UniProt P26639 1-723, looked up)
Threonine--tRNA ligase 1, …: MFEEKASSPSGKMGGEEKPIGAGEEKQKEGGKKKNKEGSGDGGRAELNPWPEYIYTRLEMYNILKAEHDSILAEKAEKDSKPIKVTLPDGKQVDAESWKTTPYQIACGISQGLADNTVIAKVNNVVWDLDRPLEEDCTLELLKFEDEEAQAVYWHSSAHIMGEAMERVYGGCLCYGPPIENGFYYDMYLEEGGVSSNDFSSLEALCKKIIKEKQAFERLEVKKETLLAMFKYNKFKCRILNEKVNTPTTTVYRCGPLIDLCRGPHVRHTGKIKALKIHKNSSTYWEGKADMETLQRIYGISFPDPKMLKEWEKFQEEAKNRDHRKIGRDQELYFFHELSPGSCFFLPKGAYIYNALIEFIRSEYRKRGFQEVVTPNIFNSRLWMTSGHWQHYSENMFSFEVEKELFALKPMNCPGHCLMFDHRPRSWRELPLRLADFGVLHRNELSGALTGLTRVRRFQQDDAHIFCAMEQIEDEIKGCLDFLRTVYSVFGFSFKLNLSTRPEKFLGDIEVWDQAEKQLENSLNEFGEKWELNSGDGAFYGPKIDIQIKDAIGRYHQCATIQLDFQLPIRFNLTYVSHDGDDKKRPVIVHRAILGSVERMIAILTENYGGKWPFWLSPRQVMVVPVGPTCDEYAQKVRQQFHDAKFMADIDLDPGCTLNKKIRNAQLAQYNFILVVGEKEKISGTVNIRTRDNKVHGERTISETIERLQQLKEFRSKQAEEEF
modifications: N-terminal His6 tag
notes: N-terminal His6-tagged human threonyl-tRNA synthetase expressed and purified from E. coli
With B1 the “number of tube branches after exogenous protein” value ([3]; 100 nM purified recombinant human TARS in low serum media (0.2% FBS), 6 h) was “significantly increased the number of tube branches; also recorded: promotes angiogenesis”, the “cell proliferation with TARS” value ([4]; HUVECs in low serum (0.2% FBS) media) was “did not exert a significant effect on cell proliferation; also recorded: does not significantly affect cell proliferation” and the “sensitivity of protein-stimulated CAM vessel formation to BC194” value ([5]; protein applied together with BC194) was “sensitive to BC194”. The “vessel formation / vascularization on the CAM after applied protein” value ([5]; purified protein applied daily to sponge, scored over 72 h) was “stimulated vessel formation; also recorded: induces in vivo angiogenesis”, the “migration of endothelial cells” value ([6]; 100 nM TARS or 100 nM LARS in migration compartment) was “significantly increased migration of endothelial cells; also recorded: selectively induces migration of endothelial cells” and the “aminoacylation activity of the protein” value [7] was “exhibits aminoacyl synthetase activity”. For the same molecule, the “production of Ap4A” value [8] was 0.1391 Ap4A/active site/min, the “rate of Ap4G formation” value [9] was 0.1639 Ap4G/active site/min and the GTP hydrolysis [10] was 0.3033 GDP/active site/min.
